Ends that are not written are not given here.

Series [1] can be described thus: Dynamic light scattering, hydrated particle size. It is filed as physicochemical. As to conditions: dynamic light scattering (Zetasizer Nano), aqueous. From the text:
The fluorescence spectrophotometer (Shimadzu RF-5301, Kyoto, Japan) and NIR spectrograph FLS1000 was used to acquire the fluorescence and NIR spectra of the as-synthesized DGC. The mean hydrated particle size and size distribution of DGC were further documented by a phase analysis light-scattering technique (Zetasizer Nano, Malvern). The synthetic DGC was also observed by using a High-Resolution Transmission Electron Microscope (HRTEM, FEI Talos F200X-G2) at the accelerated voltage of 200 kV.

The nature of series [2]: Effect of DGC on blood biochemistry of mice. It is filed as in vivo, C57BL/6J mice. As to conditions: DGC group, mean of 3 mice. From the text: In order to clarify the NIR-II signal in AD brains when in vivo imaging is arisen from the DGC probe that bound to CTGF, we selected 3-month-old APP/PS1 mice representing early-stage AD and the age-matched WT mice as control to performed ex vivo multimodal analysis of the brain sections. […] To exclude the influence of vascular retention, we emptied the cerebral vessels by cardiac perfusion and performed ex vivo imaging of the brains. […] For brain sections made from AD mice after tail vein injection of DGC, the red fluorescence observation and LA-ICP-TOF-MS of DGC, as well as a POD-like catalysis test were performed. […] In Fig. 6c, the colocalization of DGC (red fluorescence) and CTGF (green fluorescence) on the ex vivo brain sections confirmed the specificity of DGC targeting CTGF in vivo. To further identify the cellular target of DGC in the brain of APP/PS1 mice, we carried out immunofluorescence staining on the ex vivo brain sections after tail vein injection of DGC where cell-specific fluorescent antibodies for microglia (Iba 1), neurons (NeuN), vascular endothelial cell (CD31) and reactive astrocytes (GFAP) were applied. In Fig. 6d, […] co-localizes with GFAP-positive active astrocytes and CD31-positive microvessels, but not with neurons or microglia. […] The biosafety of DGC in C57BL/6J mice under the NIR-II imaging condition was evaluated by blood tests (blood cells and biochemical analysis) and organ pathological analysis (H&E staining).

For the substance “DGC: CTGF-targeting peptide-coated gold nanocluster: one Au26 gold nanocluster coated by eight DAG cyclic peptides, NIR-II and red fluorescence (CDAGRKQKC; also: cyclic peptide, ring not given here, eight peptides on one Au26 nanocluster via Cys Au-S bonds)”, the average hydrated size in series [1] was ~ 2.85 nm. Further, the “Urea (UREA)” value in series [2] was found to be 9.62 ± 1.25. Moreover, in series [2] (in U/L (unit assumed)), the “Alanine aminotransferase (ALT)” value amounted to 32.8 ± 4.26, the “Alkaline phosphatase (ALP)” value is given as 220.7 ± 27.07 and the “Aspartate aminotransferase (AST)” value is 120.2 ± 20.04. In series [2] (in µmol/L (unit assumed)), the “Creatinine (CREA)” value was found to be 22.67 ± 1.98.

For the origin of these results see article PMC11169542, “A probe for NIR-II imaging and multimodal analysis of early Alzheimer’s disease by targeting CTGF” (Nature Communications, 2024).
